Experimental data as given in patent US9766249B2, “Compositions and methods for prediction of drug sensitivity, resistance, and disease progression” (BioMarker Strategies, LLC, priority 2010, dated 2017).

How the values were obtained:
Type in all cases: cell-based
RPMI-7951 [1] = experiment: PDGFβ stimulation and MEK inhibition of PDGFβ stimulation (FIGS. 23 and 24); conditions: PDGFβ stimulation
[2] = tested on: human pancreatic neuroendocrine tumors (PanNETs); experiment: Pancreatic tumor functional signaling profile upon TPA stimulation (FIG. 18); conditions: tumor sample 10189 (metastatic PancNET)
Description: All samples except 10195 are examples of human pancreatic neuroendocrine tumors (PanNETs). 10195 is a sample of a human pancreatic adenocarcinoma. The data reveal differences in functional profiles based on TPA stimulation using three different phosphoprotein biomarkers (p-ERK1/2, p-GSKα/β, and p-STAT3).

RPMI-7951 [3] = experiment: Melanoma pErk induction following stimulation by TPA (FIG. 17)

Molecule	pPDGF (RPMI-7951 [1])	pERK induction [2] [×]	pErk (RPMI-7951 [3])
PDGFβ: platelet-derived growth factor stimulus applied to melanoma cell lines (protein, UniProt P01127 82-190, looked up) Platelet-derived growth …: SLGSLTIAEPAMIAECKTRTEVFEISRRLIDRTNANFLVWPPCVEVQRCSGCCNNRNVQCRPTQVQLRPVQVRKIEIVRKKPIFKKATVTLEDHLACKCETVAAARPVT	activated	–	–
tissue plasminogen activator (protein, UniProt P00750 36-562, looked up, modulator used for ex vivo stimulation) Tissue-type plasminogen …: SYQVICRDEKTQMIYQQHQSWLRPVLRSNRVEYCWCNSGRAQCHSVPVKSCSEPRCFNGGTCQQALYFSDFVCQCPEGFAGKCCEIDTRATCYEDQGISYRGTWSTAESGAECTNWNSSALAQKPYSGRRPDAIRLGLGNHNYCRNPDRDSKPWCYVFKAGKYSSEFCSTPACSEGNSDCYFGNGSAYRGTHSLTESGASCLPWNSMILIGKVYTAQNPSAQALGLGKHNYCRNPDGDAKPWCHVLKNRRLTWEYCDVPSCSTCGLRQYSQPQFRIKGGLFADIASHPWQAAIFAKHRRSPGERFLCGGILISSCWILSAAHCFQERFPPHHLTVILGRTYRVVPGEEEQKFEVEKYIVHKEFDDDTYDNDIALLQLKSDSSRCAQESSVVRTVCLPPADLQLPDWTECELSGYGKHEALSPFYSERLKEAHVRLYPSSRCTSQHLLNRTVTDNMLCAGDTRSGGPQANLHDACQGDSGGPLVCLNDGRMTLVGIISWGLGCGQKDVPGVYTKVTNYLDWIRDNMRP	–	10	induction
